Measured values taken from PMC3676455.

Key:
Assay in all cases: fluorescence anisotropy
[2Fe-2S]-IscR-E43A = target: T1, [2Fe-2S]-IscR-E43A (Escherichia coli, UniProt P0AGK8 1-162, E43A)
T1 sequence: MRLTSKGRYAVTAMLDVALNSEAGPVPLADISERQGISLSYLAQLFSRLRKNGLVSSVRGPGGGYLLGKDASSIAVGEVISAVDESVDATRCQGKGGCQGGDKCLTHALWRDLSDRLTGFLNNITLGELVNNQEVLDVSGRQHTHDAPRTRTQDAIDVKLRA

[2Fe-2S]-IscR wild-type = target: T2, [2Fe-2S]-IscR wild-type (Escherichia coli, UniProt P0AGK8 1-162)
T2 sequence: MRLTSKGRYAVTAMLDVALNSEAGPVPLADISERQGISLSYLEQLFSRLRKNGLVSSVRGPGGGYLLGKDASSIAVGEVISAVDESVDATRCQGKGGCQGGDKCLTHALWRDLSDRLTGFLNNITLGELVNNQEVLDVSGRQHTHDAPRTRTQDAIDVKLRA

[2Fe-2S]-IscR-R59A = target: T3, [2Fe-2S]-IscR-R59A (Escherichia coli, UniProt P0AGK8 1-162, R59A)
T3 sequence: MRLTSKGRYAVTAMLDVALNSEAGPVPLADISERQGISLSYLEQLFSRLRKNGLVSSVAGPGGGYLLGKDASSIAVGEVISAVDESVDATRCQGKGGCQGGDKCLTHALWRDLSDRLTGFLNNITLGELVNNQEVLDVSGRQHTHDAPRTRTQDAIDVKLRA

[2Fe-2S]-IscR-S40A = target: T4, [2Fe-2S]-IscR-S40A (Escherichia coli, UniProt P0AGK8 1-162, S40A)
T4 sequence: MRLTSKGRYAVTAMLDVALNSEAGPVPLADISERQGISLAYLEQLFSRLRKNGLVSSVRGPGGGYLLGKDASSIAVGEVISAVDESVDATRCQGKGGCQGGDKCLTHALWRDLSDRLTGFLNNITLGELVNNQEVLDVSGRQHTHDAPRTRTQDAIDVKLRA

B1: hya 30-mer (type 2) (dsDNA)
DNA 1: ATAAATCCACACAGTTTGTATTGTTTTGTG
DNA 2: CACAAAACAATACAAACTGTGTGGATTTAT
Q: Does B1 bind ([2Fe-2S]-IscR-E43A)?
A: binds

B2: iscRBcc (symmetrical CC) (dsDNA)
DNA 1: AAATAGCCGACCATTTTACTCGGGAATGTC
DNA 2: GACATTCCCGAGTAAAATGGTCGGCTATTT
Q: Does B2 bind ([2Fe-2S]-IscR wild-type)?
A: binds

B3: iscRB 30-mer (type 1) (dsDNA)
DNA 1: AAATAGTTGACCATTTTACTCGGGAATGTC
DNA 2: GACATTCCCGAGTAAAATGGTCAACTATTT
Q: B3 was tested. Which Kd ([2Fe-2S]-IscR wild-type) did it give?
A: 24 ± 1 nM

Q: And the Kd ([2Fe-2S]-IscR-E43A)?
A: 21 ± 1 nM

Q: Does B3 bind ([2Fe-2S]-IscR-R59A)?
A: no binding

Q: What about the Kd ([2Fe-2S]-IscR-S40A) of the same binder?
A: 94 ± 3 nM
